{
  "source": "paper PMC13011424",
  "key": {"[1]": {"molecular_target": "BG505 SOSIP.v4.1 Env trimer produced in STT3B-KO HEK293T cells (HIV-1 strain BG505 (clade A))", "experiment": "native gel or EMSA"}, "[2]": {"molecular_target": "BG505 SOSIP.v4.1 Env trimer produced in STT3B-KO HEK293T cells (HIV-1 strain BG505 (clade A))", "experiment": "SEC; SEC of Ni-NTA-purified Env on a Superdex 200 10/300 GL column; trimer, dimer and monomer peaks"}, "[3]": {"molecular_target": "BG505 SOSIP.v4.1 Env trimer produced in wild-type (WT) HEK293T cells (HIV-1 strain BG505 (clade A))", "experiment": "native gel or EMSA"}, "[4]": {"molecular_target": "BG505 SOSIP.v4.1 Env trimer produced in wild-type (WT) HEK293T cells (HIV-1 strain BG505 (clade A))", "experiment": "SEC; SEC of Ni-NTA-purified Env on a Superdex 200 10/300 GL column; trimer, dimer and monomer peaks"}, "[5]": {"molecular_target": "BG505 SOSIP.v4.1 Env trimer produced in STT3A-KO HEK293T cells (HIV-1 strain BG505 (clade A))", "experiment": "native gel or EMSA"}, "[6]": {"molecular_target": "BG505 SOSIP.v4.1 Env trimer produced in STT3A-KO HEK293T cells (HIV-1 strain BG505 (clade A))", "experiment": "SEC; SEC of Ni-NTA-purified Env on a Superdex 200 10/300 GL column; trimer, dimer and monomer peaks"}},
  "data": [
    {"substance": "BG505 SOSIP.v4.1 Env trimer produced in STT3B-KO HEK293T cells (complex)", "values": [
      {"measurement": "stoichiometry N", "setting": "[1]", "result": 3},
      {"measurement": "stoichiometry N", "setting": "[2]", "result": 3}
    ]},
    {"substance": "BG505 SOSIP.v4.1 Env trimer produced in wild-type (WT) HEK293T cells (complex)", "values": [
      {"measurement": "stoichiometry N", "setting": "[3]", "result": 3},
      {"measurement": "stoichiometry N", "setting": "[4]", "result": 3}
    ]},
    {"substance": "BG505 SOSIP.v4.1 Env trimer produced in STT3A-KO HEK293T cells (complex)", "values": [
      {"measurement": "stoichiometry N", "setting": "[5]", "result": 3},
      {"measurement": "stoichiometry N", "setting": "[6]", "result": 3}
    ]}
  ]
}
